Patent US20260049138A1 (Chugai, published 2026)

Target: T1, CD3ε homodimer protein (human, UniProt P07766 23-126, limits assumed)
T1 construct: also called CD3 (CD3ε)
Assay: SPR Biacore T200, CD3ε homodimer on chip;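 also: Light-chain single-residue variant antibodies injected over amine-coupled CD3ε homodimer on a CM4 chip at 25 °C, bound amount divided by that of the GLS3000-containing antibody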

T1 sequence (P07766 23-126 limits assumed): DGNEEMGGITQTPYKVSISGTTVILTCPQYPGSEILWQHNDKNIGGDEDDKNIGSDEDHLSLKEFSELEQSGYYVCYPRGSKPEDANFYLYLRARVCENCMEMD

| Binder | ratio of amount bound vs unaltered GLS3000 |
| --- | --- |
| GLS3000 N28E one-arm antibody (antibody, human IgG1, kappa, L234A L235A, N297A, name in Kabat numbering) heavy: QVQLVESGGGVVQPGRSLRLSCAASGFTFSNAWMHWVRQAPGKGLEWVAQIKAKSNNYATYYAESVKGRFTISRDDSKNSLYLQMNSLKTEDTAVYYCRYVHYGAYYGVDAWGQGTTVTVSSASTKGPSVFPLAPSSKSTSGGTAALGCLVKDYFPEPVTVSWNSGALTSGVHTFPAVLQSSGLYSLSSVVTVPSSSLGTQTYICNVNHKPSNTKVDKKVEPKSCDKTHTCPPCPAPEAAGGPSVFLFPPKPKDTLMISRTPEVTCVVVDVSHEDPEVKFNWYVDGVEVHNAKTKPREEQYASTYRVVSVLTVLHQDWLNGKEYKCKVSNKALPAPIEKTISKAKGQPREPQVYTLPPSRCELTKNQVSLSCAVKGFYPSDIAVEWESNGQPENNYKTTPPVLDSDGSFFLVSKLTVDKSRWQQGNVFSCSVMHEALHNHYTQKSLSLSPDYKDDDDK EPKSSDKTHTCPPCPAPELLGGPSVFLFPPKPKDTLMISRTPEVTCVVVDVSHEDPEVKFNWYVDGVEVHNAKTKPREEQYNSTYRVVSVLTVLHQDWLNGKEYKCKVSNKALPAPIEKTISKAKGQPREPQVCTLPPSRDELTKNQVSLWCLVKGFYPSDIAVEWESNGQPENNYKTTPPVLDSDGSFFLYSKLTVDKSRWQQGNVFSCSVMHEALHNRYTQKSLSLSP light: DIVMTQSPLSLPVTPGEPASISCRSSQSLVHSERNTYLHWYQQKPGQAPRLLIYKVSNRFSGVPDRFSGSGSGTDFTLKISRVEAEDVGVYYCGQGTQVPYTFGQGTKLEIKRTVAAPSVFIFPPSDEQLKSGTASVVCLLNNFYPREAKVQWKVDNALQSGNSQESVTEQDSKDSTYSLSSTLTLSKADYEKHKVYACEVTHQGLSSPVTKSFNRGEC | 0.4 |
| GLS3000 N28F one-arm antibody (antibody, human IgG1, kappa, L234A L235A, N297A, name in Kabat numbering) heavy: QVQLVESGGGVVQPGRSLRLSCAASGFTFSNAWMHWVRQAPGKGLEWVAQIKAKSNNYATYYAESVKGRFTISRDDSKNSLYLQMNSLKTEDTAVYYCRYVHYGAYYGVDAWGQGTTVTVSSASTKGPSVFPLAPSSKSTSGGTAALGCLVKDYFPEPVTVSWNSGALTSGVHTFPAVLQSSGLYSLSSVVTVPSSSLGTQTYICNVNHKPSNTKVDKKVEPKSCDKTHTCPPCPAPEAAGGPSVFLFPPKPKDTLMISRTPEVTCVVVDVSHEDPEVKFNWYVDGVEVHNAKTKPREEQYASTYRVVSVLTVLHQDWLNGKEYKCKVSNKALPAPIEKTISKAKGQPREPQVYTLPPSRCELTKNQVSLSCAVKGFYPSDIAVEWESNGQPENNYKTTPPVLDSDGSFFLVSKLTVDKSRWQQGNVFSCSVMHEALHNHYTQKSLSLSPDYKDDDDK EPKSSDKTHTCPPCPAPELLGGPSVFLFPPKPKDTLMISRTPEVTCVVVDVSHEDPEVKFNWYVDGVEVHNAKTKPREEQYNSTYRVVSVLTVLHQDWLNGKEYKCKVSNKALPAPIEKTISKAKGQPREPQVCTLPPSRDELTKNQVSLWCLVKGFYPSDIAVEWESNGQPENNYKTTPPVLDSDGSFFLYSKLTVDKSRWQQGNVFSCSVMHEALHNRYTQKSLSLSP light: DIVMTQSPLSLPVTPGEPASISCRSSQSLVHSFRNTYLHWYQQKPGQAPRLLIYKVSNRFSGVPDRFSGSGSGTDFTLKISRVEAEDVGVYYCGQGTQVPYTFGQGTKLEIKRTVAAPSVFIFPPSDEQLKSGTASVVCLLNNFYPREAKVQWKVDNALQSGNSQESVTEQDSKDSTYSLSSTLTLSKADYEKHKVYACEVTHQGLSSPVTKSFNRGEC | 0.46 |
| GLS3000 N28G one-arm antibody (antibody, human IgG1, kappa, L234A L235A, N297A, name in Kabat numbering) heavy: QVQLVESGGGVVQPGRSLRLSCAASGFTFSNAWMHWVRQAPGKGLEWVAQIKAKSNNYATYYAESVKGRFTISRDDSKNSLYLQMNSLKTEDTAVYYCRYVHYGAYYGVDAWGQGTTVTVSSASTKGPSVFPLAPSSKSTSGGTAALGCLVKDYFPEPVTVSWNSGALTSGVHTFPAVLQSSGLYSLSSVVTVPSSSLGTQTYICNVNHKPSNTKVDKKVEPKSCDKTHTCPPCPAPEAAGGPSVFLFPPKPKDTLMISRTPEVTCVVVDVSHEDPEVKFNWYVDGVEVHNAKTKPREEQYASTYRVVSVLTVLHQDWLNGKEYKCKVSNKALPAPIEKTISKAKGQPREPQVYTLPPSRCELTKNQVSLSCAVKGFYPSDIAVEWESNGQPENNYKTTPPVLDSDGSFFLVSKLTVDKSRWQQGNVFSCSVMHEALHNHYTQKSLSLSPDYKDDDDK EPKSSDKTHTCPPCPAPELLGGPSVFLFPPKPKDTLMISRTPEVTCVVVDVSHEDPEVKFNWYVDGVEVHNAKTKPREEQYNSTYRVVSVLTVLHQDWLNGKEYKCKVSNKALPAPIEKTISKAKGQPREPQVCTLPPSRDELTKNQVSLWCLVKGFYPSDIAVEWESNGQPENNYKTTPPVLDSDGSFFLYSKLTVDKSRWQQGNVFSCSVMHEALHNRYTQKSLSLSP light: DIVMTQSPLSLPVTPGEPASISCRSSQSLVHSGRNTYLHWYQQKPGQAPRLLIYKVSNRFSGVPDRFSGSGSGTDFTLKISRVEAEDVGVYYCGQGTQVPYTFGQGTKLEIKRTVAAPSVFIFPPSDEQLKSGTASVVCLLNNFYPREAKVQWKVDNALQSGNSQESVTEQDSKDSTYSLSSTLTLSKADYEKHKVYACEVTHQGLSSPVTKSFNRGEC | 0.46 |
| GLS3000 N28H one-arm antibody (antibody, human IgG1, kappa, L234A L235A, N297A, name in Kabat numbering) heavy: QVQLVESGGGVVQPGRSLRLSCAASGFTFSNAWMHWVRQAPGKGLEWVAQIKAKSNNYATYYAESVKGRFTISRDDSKNSLYLQMNSLKTEDTAVYYCRYVHYGAYYGVDAWGQGTTVTVSSASTKGPSVFPLAPSSKSTSGGTAALGCLVKDYFPEPVTVSWNSGALTSGVHTFPAVLQSSGLYSLSSVVTVPSSSLGTQTYICNVNHKPSNTKVDKKVEPKSCDKTHTCPPCPAPEAAGGPSVFLFPPKPKDTLMISRTPEVTCVVVDVSHEDPEVKFNWYVDGVEVHNAKTKPREEQYASTYRVVSVLTVLHQDWLNGKEYKCKVSNKALPAPIEKTISKAKGQPREPQVYTLPPSRCELTKNQVSLSCAVKGFYPSDIAVEWESNGQPENNYKTTPPVLDSDGSFFLVSKLTVDKSRWQQGNVFSCSVMHEALHNHYTQKSLSLSPDYKDDDDK EPKSSDKTHTCPPCPAPELLGGPSVFLFPPKPKDTLMISRTPEVTCVVVDVSHEDPEVKFNWYVDGVEVHNAKTKPREEQYNSTYRVVSVLTVLHQDWLNGKEYKCKVSNKALPAPIEKTISKAKGQPREPQVCTLPPSRDELTKNQVSLWCLVKGFYPSDIAVEWESNGQPENNYKTTPPVLDSDGSFFLYSKLTVDKSRWQQGNVFSCSVMHEALHNRYTQKSLSLSP light: DIVMTQSPLSLPVTPGEPASISCRSSQSLVHSHRNTYLHWYQQKPGQAPRLLIYKVSNRFSGVPDRFSGSGSGTDFTLKISRVEAEDVGVYYCGQGTQVPYTFGQGTKLEIKRTVAAPSVFIFPPSDEQLKSGTASVVCLLNNFYPREAKVQWKVDNALQSGNSQESVTEQDSKDSTYSLSSTLTLSKADYEKHKVYACEVTHQGLSSPVTKSFNRGEC | 0.42 |
| GLS3000 N28I one-arm antibody (antibody, human IgG1, kappa, L234A L235A, N297A, name in Kabat numbering) heavy: QVQLVESGGGVVQPGRSLRLSCAASGFTFSNAWMHWVRQAPGKGLEWVAQIKAKSNNYATYYAESVKGRFTISRDDSKNSLYLQMNSLKTEDTAVYYCRYVHYGAYYGVDAWGQGTTVTVSSASTKGPSVFPLAPSSKSTSGGTAALGCLVKDYFPEPVTVSWNSGALTSGVHTFPAVLQSSGLYSLSSVVTVPSSSLGTQTYICNVNHKPSNTKVDKKVEPKSCDKTHTCPPCPAPEAAGGPSVFLFPPKPKDTLMISRTPEVTCVVVDVSHEDPEVKFNWYVDGVEVHNAKTKPREEQYASTYRVVSVLTVLHQDWLNGKEYKCKVSNKALPAPIEKTISKAKGQPREPQVYTLPPSRCELTKNQVSLSCAVKGFYPSDIAVEWESNGQPENNYKTTPPVLDSDGSFFLVSKLTVDKSRWQQGNVFSCSVMHEALHNHYTQKSLSLSPDYKDDDDK EPKSSDKTHTCPPCPAPELLGGPSVFLFPPKPKDTLMISRTPEVTCVVVDVSHEDPEVKFNWYVDGVEVHNAKTKPREEQYNSTYRVVSVLTVLHQDWLNGKEYKCKVSNKALPAPIEKTISKAKGQPREPQVCTLPPSRDELTKNQVSLWCLVKGFYPSDIAVEWESNGQPENNYKTTPPVLDSDGSFFLYSKLTVDKSRWQQGNVFSCSVMHEALHNRYTQKSLSLSP light: DIVMTQSPLSLPVTPGEPASISCRSSQSLVHSIRNTYLHWYQQKPGQAPRLLIYKVSNRFSGVPDRFSGSGSGTDFTLKISRVEAEDVGVYYCGQGTQVPYTFGQGTKLEIKRTVAAPSVFIFPPSDEQLKSGTASVVCLLNNFYPREAKVQWKVDNALQSGNSQESVTEQDSKDSTYSLSSTLTLSKADYEKHKVYACEVTHQGLSSPVTKSFNRGEC | 0.44 |
| GLS3000 N28K one-arm antibody (antibody, human IgG1, kappa, L234A L235A, N297A, name in Kabat numbering) heavy: QVQLVESGGGVVQPGRSLRLSCAASGFTFSNAWMHWVRQAPGKGLEWVAQIKAKSNNYATYYAESVKGRFTISRDDSKNSLYLQMNSLKTEDTAVYYCRYVHYGAYYGVDAWGQGTTVTVSSASTKGPSVFPLAPSSKSTSGGTAALGCLVKDYFPEPVTVSWNSGALTSGVHTFPAVLQSSGLYSLSSVVTVPSSSLGTQTYICNVNHKPSNTKVDKKVEPKSCDKTHTCPPCPAPEAAGGPSVFLFPPKPKDTLMISRTPEVTCVVVDVSHEDPEVKFNWYVDGVEVHNAKTKPREEQYASTYRVVSVLTVLHQDWLNGKEYKCKVSNKALPAPIEKTISKAKGQPREPQVYTLPPSRCELTKNQVSLSCAVKGFYPSDIAVEWESNGQPENNYKTTPPVLDSDGSFFLVSKLTVDKSRWQQGNVFSCSVMHEALHNHYTQKSLSLSPDYKDDDDK EPKSSDKTHTCPPCPAPELLGGPSVFLFPPKPKDTLMISRTPEVTCVVVDVSHEDPEVKFNWYVDGVEVHNAKTKPREEQYNSTYRVVSVLTVLHQDWLNGKEYKCKVSNKALPAPIEKTISKAKGQPREPQVCTLPPSRDELTKNQVSLWCLVKGFYPSDIAVEWESNGQPENNYKTTPPVLDSDGSFFLYSKLTVDKSRWQQGNVFSCSVMHEALHNRYTQKSLSLSP light: DIVMTQSPLSLPVTPGEPASISCRSSQSLVHSKRNTYLHWYQQKPGQAPRLLIYKVSNRFSGVPDRFSGSGSGTDFTLKISRVEAEDVGVYYCGQGTQVPYTFGQGTKLEIKRTVAAPSVFIFPPSDEQLKSGTASVVCLLNNFYPREAKVQWKVDNALQSGNSQESVTEQDSKDSTYSLSSTLTLSKADYEKHKVYACEVTHQGLSSPVTKSFNRGEC | 0.44 |
